Measured values as given in paper PMC9352689 (Nature Communications, 2022).

How the values were obtained:
[1] = molecular target: SARS-CoV-2 soluble S2, his-tagged (SARS-CoV-2, ancestral (Wuhan-Hu-1), UniProt P0DTC2); experiment: ELISA; COVA MAbs on SARS-CoV-2 S and on soluble S2 (Fig. S5A); format not told; conditions: both partners purified
[2] = molecular target: SARS-CoV S, full-length, on the cell surface (SARS-CoV, strain , UniProt P59594); experiment: flow cytometry on cells; conditions: one partner purified
[3] = molecular target: MERS-CoV S, full-length, on the cell surface (MERS-CoV, strain , UniProt K9N5Q8); experiment: flow cytometry on cells; conditions: one partner purified
[4] = molecular target: HCoV-OC43 S, full-length, on the cell surface (HCoV-OC43, strain , UniProt P36334); experiment: flow cytometry on cells; conditions: one partner purified
[5] = molecular target: HCoV-229E S, full-length, on the cell surface (HCoV-229E, strain , UniProt P15423); experiment: flow cytometry on cells; conditions: one partner purified
[6] = molecular target: HCoV-HKU1 S, full-length, on the cell surface (HCoV-HKU1, isolate  (entry: …, UniProt Q5MQD0)); experiment: flow cytometry on cells; conditions: one partner purified
[7] = molecular target: T1, SARS-CoV-2 S, full-length wild type, expressed on the cell surface (SARS-CoV-2, labelled B.1 in Fig. S6A, UniProt P0DTC2); experiment: flow cytometry on cells; conditions: one partner purified
T1 construct: source: HEK293T, transfected, on the cell surface

[8] = molecular target: HCoV-NL63 S, full-length, on the cell surface (HCoV-NL63, strain , UniProt Q6Q1S2); experiment: flow cytometry on cells; conditions: one partner purified
[9] = molecular target: bat CoV SHC014 S, full-length, on the cell surface (Bat SARS-like coronavirus RsSHC014, UniProt U5WLK5); experiment: flow cytometry on cells; conditions: one partner purified

| Binder | binding result [1] | binding result [2] | binding result [3] | binding result [4] | binding result [5] | binding result [6] | binding result [7] | binding result [8] | binding result [9] |
| --- | --- | --- | --- | --- | --- | --- | --- | --- | --- |
| COVA1-07 (antibody, V domains shown, copies: 2 + 2) VH: QVQLVESGAEVKKPGSSVKVSCKASGGTLSSYAITWVRQAPGQGLEWVGGIIPIFGTANYAQKFQGRVTITADESTSTAYMELSSLRSEDTAVYYCARVGAYDSSGYSNDYWGQGTLVTVSS VL: DIQLTQSPATLSLSPGERATLSCRASQSVSSYLAWYQQKPGQAPRLLIYDASNRATGIPARFSGSGSGTDFTLTISSLEPEDFAVYYCQQRSNWPPRVTFGGGTKVEIK | binds | binds | no binding (tested: 50 μg/mL) | no binding (tested: 50 μg/mL) | no binding (tested: 50 μg/mL) | no binding (tested: 50 μg/mL) | binds | no binding (tested: 50 μg/mL) | binds |
| COVA2-14 (antibody, V domains shown, copies: 2 + 2) VH: QVQLVQSGAEVKKPGSSVKVSCKASGGTFSSYAIIWVRQAPGQGLEWMGGIIPIFGTANYAQKFQGRVTITTDESTSTAYMELSSLRSEDTAVYYCARVRYYDSSGYYEDYWGQGTLVTVSS VL: EIVLTQSPATLSLSPGERATLSCRASQSVSSYLAWYQQEPGQAPRLLIYDASNRATGIPARFSGSGSGTDFTLTISSLEPEDFAVYYCQQRSNWPPMYTFGQGTKVEIK | binds | binds | no binding (tested: 50 μg/mL) | no binding (tested: 50 μg/mL) | no binding (tested: 50 μg/mL) | no binding (tested: 50 μg/mL) | binds | no binding (tested: 50 μg/mL) | binds |
| COVA2-18 (antibody, V domains shown, copies: 2 + 2) VH: EVQLVQSGAEVKKPGSSVKVSCKASGGTFSSYAISWVRQAPGQGLEWMGGIIPIFGTTNYAQKFQGRVTITTDESTSTAYMELSSLRSEDTAVYYCARVYSYDSSGYYLEYWGQGTRVTVSS VL: EIVLTQSPATLSLSPGERATLSCRASQSVSSYLAWYQQKPGQAPRLLIYDASNRATGIPARFSGSGSGTDFTLTISSLEPEDFAVYYCQQRSNWPPSITFGQGTRLEIK | binds | binds | no binding (tested: 50 μg/mL) | no binding (tested: 50 μg/mL) | no binding (tested: 50 μg/mL) | no binding (tested: 50 μg/mL) | binds | no binding (tested: 50 μg/mL) | binds |
